Source: patent US20250218531A1 (ABSCI, published 2025)
Positions count from the first letter of the chain named. Values joined by “and” are separate entries in the source; they are usually repeats but may differ in a detail not shown here. Identical values can stand only once.

B1: Trastuzumab HCDR3 variant ARYYGYYYAFDY (Fab, V domains shown)
VH: EVQLVESGGGLVQPGGSLRLSCAASGFNIKDTYIHWVRQAPGKGLEWVARIYPTNGYTRYADSVKGRFTISADTSKNTAYLQMNSLRAEDTAVYYCARYYGYYYAFDYWGQGTLVTVSS
VL: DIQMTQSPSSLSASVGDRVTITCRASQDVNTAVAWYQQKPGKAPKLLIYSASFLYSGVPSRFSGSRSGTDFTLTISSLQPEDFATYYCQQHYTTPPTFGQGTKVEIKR
B2: Trastuzumab HCDR3 variant AANAAIFAAWGA (Fab, V domains shown)
VH: B1 VH with R98A, Y99N, Y100A, G101A, Y102I, Y103F, Y104A, F106W, D107G, Y108A
VL: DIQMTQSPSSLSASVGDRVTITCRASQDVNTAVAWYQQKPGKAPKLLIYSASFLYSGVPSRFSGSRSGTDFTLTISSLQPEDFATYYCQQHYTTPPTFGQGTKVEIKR
B3: Trastuzumab HCDR3 variant AASADFMYGVIR (Fab, V domains shown)
VH: B1 VH with R98A, Y99S, Y100A, G101D, Y102F, Y103M, A105G, F106V, D107I, Y108R
VL: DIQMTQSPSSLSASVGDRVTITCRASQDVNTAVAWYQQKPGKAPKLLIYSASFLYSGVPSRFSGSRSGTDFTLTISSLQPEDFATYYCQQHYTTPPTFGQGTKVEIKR
B4: Trastuzumab HCDR3 variant AAYGPQGYAFAV (Fab, V domains shown)
VH: B1 VH with R98A, Y100G, G101P, Y102Q, Y103G, D107A, Y108V
VL: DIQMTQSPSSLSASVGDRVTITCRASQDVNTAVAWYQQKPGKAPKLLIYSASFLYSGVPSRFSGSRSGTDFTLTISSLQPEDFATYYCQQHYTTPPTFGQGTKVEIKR
B5: Trastuzumab HCDR3 variant AAYWYGVYVFRY (Fab, V domains shown)
VH: B1 VH with R98A, Y100W, G101Y, Y102G, Y103V, A105V, D107R
VL: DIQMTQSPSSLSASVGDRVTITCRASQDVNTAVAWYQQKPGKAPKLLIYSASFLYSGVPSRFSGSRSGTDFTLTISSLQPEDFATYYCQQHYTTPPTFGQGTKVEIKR
B6: Trastuzumab HCDR3 variant AGYWYGSYSFDY (Fab, V domains shown)
VH: B1 VH with R98G, Y100W, G101Y, Y102G, Y103S, A105S
VL: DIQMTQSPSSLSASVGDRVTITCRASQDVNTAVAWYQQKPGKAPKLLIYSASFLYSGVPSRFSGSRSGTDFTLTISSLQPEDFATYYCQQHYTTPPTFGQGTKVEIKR
B7: Trastuzumab HCDR3 variant AKYAFGGWSYSP (Fab, V domains shown)
VH: B1 VH with R98K, Y100A, G101F, Y102G, Y103G, Y104W, A105S, F106Y, D107S, Y108P
VL: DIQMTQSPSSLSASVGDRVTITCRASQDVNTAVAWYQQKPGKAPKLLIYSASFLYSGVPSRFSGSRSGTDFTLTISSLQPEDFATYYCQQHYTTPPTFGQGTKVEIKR
B8: Trastuzumab HCDR3 variant AKYGISDYGFDH (Fab, V domains shown)
VH: B1 VH with R98K, Y100G, G101I, Y102S, Y103D, A105G, Y108H
VL: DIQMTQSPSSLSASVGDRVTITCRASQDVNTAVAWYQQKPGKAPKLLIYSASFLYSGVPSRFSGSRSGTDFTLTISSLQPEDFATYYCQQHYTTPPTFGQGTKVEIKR
B9: Trastuzumab HCDR3 variant AKYGRSDYGFEH (Fab, V domains shown)
VH: B1 VH with R98K, Y100G, G101R, Y102S, Y103D, A105G, D107E, Y108H
VL: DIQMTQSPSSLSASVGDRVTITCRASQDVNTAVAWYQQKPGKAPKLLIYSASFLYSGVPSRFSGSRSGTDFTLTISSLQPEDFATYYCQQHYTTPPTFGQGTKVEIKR
B10: Trastuzumab HCDR3 variant AKYGTSNYGFSH (Fab, V domains shown)
VH: B1 VH with R98K, Y100G, G101T, Y102S, Y103N, A105G, D107S, Y108H
VL: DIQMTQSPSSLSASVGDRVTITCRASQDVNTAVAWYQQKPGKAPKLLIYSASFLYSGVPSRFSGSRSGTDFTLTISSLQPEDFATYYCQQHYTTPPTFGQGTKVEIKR
B11: Trastuzumab HCDR3 variant ALLYGYYPSGVG (Fab, V domains shown)
VH: B1 VH with R98L, Y99L, Y104P, A105S, F106G, D107V, Y108G
VL: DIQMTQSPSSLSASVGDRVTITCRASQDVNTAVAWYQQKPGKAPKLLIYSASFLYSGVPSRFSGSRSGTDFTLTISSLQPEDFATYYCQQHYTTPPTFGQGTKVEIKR
B12: Trastuzumab HCDR3 variant ALYKRYDYAFGY (Fab, V domains shown)
VH: B1 VH with R98L, Y100K, G101R, Y103D, D107G
VL: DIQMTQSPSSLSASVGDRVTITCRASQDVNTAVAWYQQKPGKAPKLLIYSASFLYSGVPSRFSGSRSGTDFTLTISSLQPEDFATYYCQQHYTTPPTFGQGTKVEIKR
B13: Trastuzumab HCDR3 variant AQSGSYFYPFSY (Fab, V domains shown)
VH: B1 VH with R98Q, Y99S, Y100G, G101S, Y103F, A105P, D107S
VL: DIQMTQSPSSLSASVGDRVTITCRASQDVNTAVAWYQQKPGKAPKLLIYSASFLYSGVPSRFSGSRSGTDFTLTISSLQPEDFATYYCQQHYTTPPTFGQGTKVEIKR
B14: Trastuzumab HCDR3 variant ARASWNWYGGDY (Fab, V domains shown)
VH: B1 VH with Y99A, Y100S, G101W, Y102N, Y103W, A105G, F106G
VL: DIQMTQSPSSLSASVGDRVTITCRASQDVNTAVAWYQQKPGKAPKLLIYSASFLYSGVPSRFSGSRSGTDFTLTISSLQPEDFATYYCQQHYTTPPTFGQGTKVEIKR
B15: Trastuzumab HCDR3 variant ARASWYWYGGDK (Fab, V domains shown)
VH: B1 VH with Y99A, Y100S, G101W, Y103W, A105G, F106G, Y108K
VL: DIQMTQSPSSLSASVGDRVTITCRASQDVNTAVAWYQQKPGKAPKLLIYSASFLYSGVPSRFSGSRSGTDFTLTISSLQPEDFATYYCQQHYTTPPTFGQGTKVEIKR
B16: Trastuzumab HCDR3 variant ARFLYGSYYFDY (Fab, V domains shown)
VH: B1 VH with Y99F, Y100L, G101Y, Y102G, Y103S, A105Y
VL: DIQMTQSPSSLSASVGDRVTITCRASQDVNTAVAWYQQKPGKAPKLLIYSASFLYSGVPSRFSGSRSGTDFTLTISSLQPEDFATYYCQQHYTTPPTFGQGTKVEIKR
B17: Trastuzumab HCDR3 variant ARFPVSSYAYGF (Fab, V domains shown)
VH: B1 VH with Y99F, Y100P, G101V, Y102S, Y103S, F106Y, D107G, Y108F
VL: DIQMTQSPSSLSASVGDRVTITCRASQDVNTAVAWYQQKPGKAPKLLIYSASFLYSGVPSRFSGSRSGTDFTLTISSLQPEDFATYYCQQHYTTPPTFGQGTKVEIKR
B18: Trastuzumab HCDR3 variant ARGYFGGYYFAY (Fab, V domains shown)
VH: B1 VH with Y99G, G101F, Y102G, Y103G, A105Y, D107A
VL: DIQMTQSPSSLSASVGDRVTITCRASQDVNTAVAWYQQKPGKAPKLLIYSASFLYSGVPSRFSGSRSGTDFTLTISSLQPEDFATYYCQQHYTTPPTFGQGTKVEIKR
B19: Trastuzumab HCDR3 variant ARGYWWLYGFAY (Fab, V domains shown)
VH: B1 VH with Y99G, G101W, Y102W, Y103L, A105G, D107A
VL: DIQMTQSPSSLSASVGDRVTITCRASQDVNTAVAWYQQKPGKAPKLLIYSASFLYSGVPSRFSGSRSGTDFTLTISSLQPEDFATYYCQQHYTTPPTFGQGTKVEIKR
B20: Trastuzumab HCDR3 variant ARGYYHYYHYQY (Fab, V domains shown)
VH: B1 VH with Y99G, G101Y, Y102H, A105H, F106Y, D107Q
VL: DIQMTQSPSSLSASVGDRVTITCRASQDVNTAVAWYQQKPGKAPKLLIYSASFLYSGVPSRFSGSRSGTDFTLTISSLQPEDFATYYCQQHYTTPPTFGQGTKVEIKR
B21: Trastuzumab HCDR3 variant ARGYYYYFYYNY (Fab, V domains shown)
VH: B1 VH with Y99G, G101Y, Y104F, A105Y, F106Y, D107N
VL: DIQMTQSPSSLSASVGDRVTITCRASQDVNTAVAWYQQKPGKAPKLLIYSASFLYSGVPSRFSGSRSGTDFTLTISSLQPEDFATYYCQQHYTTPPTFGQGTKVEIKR
B22: Trastuzumab HCDR3 variant ARGYYYYQWYYY (Fab, V domains shown)
VH: B1 VH with Y99G, G101Y, Y104Q, A105W, F106Y, D107Y
VL: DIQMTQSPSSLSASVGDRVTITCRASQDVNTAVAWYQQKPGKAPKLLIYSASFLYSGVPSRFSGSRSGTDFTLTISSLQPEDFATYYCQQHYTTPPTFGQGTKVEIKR
B23: Trastuzumab HCDR3 variant ARHGSYYYDFDF (Fab, V domains shown)
VH: B1 VH with Y99H, Y100G, G101S, A105D, Y108F
VL: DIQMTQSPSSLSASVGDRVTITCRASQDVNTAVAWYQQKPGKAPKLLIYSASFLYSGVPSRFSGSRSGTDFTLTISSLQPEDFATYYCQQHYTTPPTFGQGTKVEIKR
B24: Trastuzumab HCDR3 variant ARHHYSGYFHDV (Fab, V domains shown)
VH: B1 VH with Y99H, Y100H, G101Y, Y102S, Y103G, A105F, F106H, Y108V
VL: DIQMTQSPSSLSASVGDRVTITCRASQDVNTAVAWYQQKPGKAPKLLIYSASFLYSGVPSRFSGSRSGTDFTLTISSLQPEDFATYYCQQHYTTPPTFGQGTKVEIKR
B25: Trastuzumab HCDR3 variant ARMSYYFYYMDY (Fab, V domains shown)
VH: B1 VH with Y99M, Y100S, G101Y, Y103F, A105Y, F106M
VL: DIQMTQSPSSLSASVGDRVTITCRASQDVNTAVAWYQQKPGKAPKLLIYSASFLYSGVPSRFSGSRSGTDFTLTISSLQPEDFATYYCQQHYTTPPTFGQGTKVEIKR
B26: Trastuzumab HCDR3 variant ARNYVYWYGMTV (Fab, V domains shown)
VH: B1 VH with Y99N, G101V, Y103W, A105G, F106M, D107T, Y108V
VL: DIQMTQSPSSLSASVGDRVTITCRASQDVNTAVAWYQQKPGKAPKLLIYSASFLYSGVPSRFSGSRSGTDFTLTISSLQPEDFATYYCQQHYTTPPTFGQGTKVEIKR
B27: Trastuzumab HCDR3 variant ARNYYGSYYFDY (Fab, V domains shown)
VH: B1 VH with Y99N, G101Y, Y102G, Y103S, A105Y
VL: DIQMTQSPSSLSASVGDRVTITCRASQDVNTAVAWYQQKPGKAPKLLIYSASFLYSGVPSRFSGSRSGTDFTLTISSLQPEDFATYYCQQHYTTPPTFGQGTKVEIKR
B28: Trastuzumab HCDR3 variant ARSEWFWGSFAY (Fab, V domains shown)
VH: B1 VH with Y99S, Y100E, G101W, Y102F, Y103W, Y104G, A105S, D107A
VL: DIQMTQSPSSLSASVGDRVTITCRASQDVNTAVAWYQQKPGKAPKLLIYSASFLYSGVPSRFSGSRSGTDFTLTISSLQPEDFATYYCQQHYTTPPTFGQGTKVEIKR
B29: Trastuzumab HCDR3 variant ARSGEGYYAFDY (Fab, V domains shown)
VH: B1 VH with Y99S, Y100G, G101E, Y102G
VL: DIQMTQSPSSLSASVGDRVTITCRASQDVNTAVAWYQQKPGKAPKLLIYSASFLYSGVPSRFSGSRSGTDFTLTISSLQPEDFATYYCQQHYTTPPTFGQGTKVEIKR
B30: Trastuzumab HCDR3 variant ARSTDYWHASQY (Fab, V domains shown)
VH: B1 VH with Y99S, Y100T, G101D, Y103W, Y104H, F106S, D107Q
VL: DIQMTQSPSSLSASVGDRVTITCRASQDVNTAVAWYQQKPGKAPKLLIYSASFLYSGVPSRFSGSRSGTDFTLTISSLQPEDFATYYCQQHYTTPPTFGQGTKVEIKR
B31: Trastuzumab HCDR3 variant ARSYYGAYYFDY (Fab, V domains shown)
VH: B1 VH with Y99S, G101Y, Y102G, Y103A, A105Y
VL: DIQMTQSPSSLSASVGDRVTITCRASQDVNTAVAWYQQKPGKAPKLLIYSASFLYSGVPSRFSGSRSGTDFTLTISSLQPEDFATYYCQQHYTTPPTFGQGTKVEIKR
B32: Trastuzumab HCDR3 variant ARTTISSSSYTG (Fab, V domains shown)
VH: B1 VH with Y99T, Y100T, G101I, Y102S, Y103S, Y104S, A105S, F106Y, D107T, Y108G
VL: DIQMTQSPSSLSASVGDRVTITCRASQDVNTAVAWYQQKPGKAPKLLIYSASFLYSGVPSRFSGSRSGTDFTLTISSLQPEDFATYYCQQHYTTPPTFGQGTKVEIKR
B33: Trastuzumab HCDR3 variant ARWLYYGYYFDY (Fab, V domains shown)
VH: B1 VH with Y99W, Y100L, G101Y, Y103G, A105Y
VL: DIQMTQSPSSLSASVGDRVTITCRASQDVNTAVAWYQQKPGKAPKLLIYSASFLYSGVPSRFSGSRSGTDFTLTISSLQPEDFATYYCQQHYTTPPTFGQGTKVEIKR
B34: Trastuzumab HCDR3 variant VRYGFDGSYYFDP (Fab, V domains shown)
VH: EVQLVESGGGLVQPGGSLRLSCAASGFNIKDTYIHWVRQAPGKGLEWVARIYPTNGYTRYADSVKGRFTISADTSKNTAYLQMNSLRAEDTAVYYCVRYGFDGSYYFDPWGQGTLVTVSS
VL: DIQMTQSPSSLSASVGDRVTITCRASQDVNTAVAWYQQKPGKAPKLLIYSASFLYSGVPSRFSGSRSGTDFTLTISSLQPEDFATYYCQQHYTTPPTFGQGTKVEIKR
B35: Trastuzumab HCDR3 variant VRYGFYGYYYFDY (Fab, V domains shown)
VH: B34 VH with D102Y, S104Y, P109Y
VL: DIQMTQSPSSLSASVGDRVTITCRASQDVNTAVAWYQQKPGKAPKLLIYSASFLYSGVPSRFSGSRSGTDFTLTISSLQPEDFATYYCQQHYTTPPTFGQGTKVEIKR
B36: Trastuzumab HCDR3 variant VRYGGWGFWYFDY (Fab, V domains shown)
VH: B34 VH with F101G, D102W, S104F, Y105W, P109Y
VL: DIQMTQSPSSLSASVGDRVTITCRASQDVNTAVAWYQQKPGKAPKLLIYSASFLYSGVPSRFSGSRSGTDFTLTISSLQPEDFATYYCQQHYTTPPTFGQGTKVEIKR
B37: Trastuzumab HCDR3 variant VRYGSDVYYYFDI (Fab, V domains shown)
VH: B34 VH with F101S, G103V, S104Y, P109I
VL: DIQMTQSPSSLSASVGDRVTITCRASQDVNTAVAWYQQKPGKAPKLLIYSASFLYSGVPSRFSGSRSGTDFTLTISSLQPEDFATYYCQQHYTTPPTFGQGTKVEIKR
B38: Trastuzumab HCDR3 variant VRYGYGDYYYFDY (Fab, V domains shown)
VH: B34 VH with F101Y, D102G, G103D, S104Y, P109Y
VL: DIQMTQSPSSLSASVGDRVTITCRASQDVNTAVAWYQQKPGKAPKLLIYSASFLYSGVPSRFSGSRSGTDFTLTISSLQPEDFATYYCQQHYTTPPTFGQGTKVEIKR
B39: Trastuzumab HCDR3 variant VRYYGDGGYYFDY (Fab, V domains shown)
VH: B34 VH with G100Y, F101G, S104G, P109Y
VL: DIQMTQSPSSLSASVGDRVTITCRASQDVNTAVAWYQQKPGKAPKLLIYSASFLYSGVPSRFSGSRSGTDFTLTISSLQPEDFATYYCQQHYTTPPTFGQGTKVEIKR
B40: Trastuzumab HCDR3 variant ARYGGGYNMDY (Fab, V domains shown)
VH: EVQLVESGGGLVQPGGSLRLSCAASGFNIKDTYIHWVRQAPGKGLEWVARIYPTNGYTRYADSVKGRFTISADTSKNTAYLQMNSLRAEDTAVYYCARYGGGYNMDYWGQGTLVTVSS
VL: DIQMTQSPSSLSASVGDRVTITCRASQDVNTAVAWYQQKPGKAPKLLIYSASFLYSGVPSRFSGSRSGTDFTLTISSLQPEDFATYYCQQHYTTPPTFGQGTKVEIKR
B41: Trastuzumab HCDR3 variant APYGPGYWYGV (Fab, V domains shown)
VH: B40 VH with R98P, G101P, N104W, M105Y, D106G, Y107V
VL: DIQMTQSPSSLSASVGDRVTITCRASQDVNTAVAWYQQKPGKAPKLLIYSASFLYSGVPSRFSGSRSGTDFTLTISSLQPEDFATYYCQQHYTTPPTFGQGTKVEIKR
B42: Trastuzumab HCDR3 variant ARWEDYYYMDY (Fab, V domains shown)
VH: B40 VH with Y99W, G100E, G101D, G102Y, N104Y
VL: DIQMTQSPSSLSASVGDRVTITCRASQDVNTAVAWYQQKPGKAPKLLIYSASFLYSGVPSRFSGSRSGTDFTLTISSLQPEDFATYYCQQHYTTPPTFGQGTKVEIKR
B43: Trastuzumab HCDR3 variant ARWYVSYDYDV (Fab, V domains shown)
VH: B40 VH with Y99W, G100Y, G101V, G102S, N104D, M105Y, Y107V
VL: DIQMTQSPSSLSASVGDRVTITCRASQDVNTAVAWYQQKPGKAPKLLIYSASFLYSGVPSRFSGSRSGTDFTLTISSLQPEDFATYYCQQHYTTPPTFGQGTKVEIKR
B44: Trastuzumab HCDR3 variant TRWGGYYYFDY (Fab, V domains shown)
VH: B40 VH with A97T, Y99W, G102Y, N104Y, M105F
VL: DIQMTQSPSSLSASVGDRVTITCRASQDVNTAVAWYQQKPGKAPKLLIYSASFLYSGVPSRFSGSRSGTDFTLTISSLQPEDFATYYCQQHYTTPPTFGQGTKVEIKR
B45: Trastuzumab HCDR3 variant TRYGLTFDMDY (Fab, V domains shown)
VH: B40 VH with A97T, G101L, G102T, Y103F, N104D
VL: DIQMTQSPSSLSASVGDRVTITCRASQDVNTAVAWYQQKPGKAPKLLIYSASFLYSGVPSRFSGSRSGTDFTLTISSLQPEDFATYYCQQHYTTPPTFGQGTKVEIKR
B46: Trastuzumab HCDR3 variant VRFYYDYYFDY (Fab, V domains shown)
VH: B40 VH with A97V, Y99F, G100Y, G101Y, G102D, N104Y, M105F
VL: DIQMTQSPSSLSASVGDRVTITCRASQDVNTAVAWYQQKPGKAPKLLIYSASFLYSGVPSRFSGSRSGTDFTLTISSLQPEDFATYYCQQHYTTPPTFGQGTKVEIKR
B47: Trastuzumab HCDR3 variant VRYGNSYYYDY (Fab, V domains shown)
VH: B40 VH with A97V, G101N, G102S, N104Y, M105Y
VL: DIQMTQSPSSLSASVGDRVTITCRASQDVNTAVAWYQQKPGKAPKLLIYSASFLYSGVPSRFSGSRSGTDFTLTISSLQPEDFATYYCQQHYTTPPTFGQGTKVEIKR
B48: Trastuzumab HCDR3 variant ARYYYGYGGYYFDY (Fab, V domains shown)
VH: EVQLVESGGGLVQPGGSLRLSCAASGFNIKDTYIHWVRQAPGKGLEWVARIYPTNGYTRYADSVKGRFTISADTSKNTAYLQMNSLRAEDTAVYYCARYYYGYGGYYFDYWGQGTLVTVSS
VL: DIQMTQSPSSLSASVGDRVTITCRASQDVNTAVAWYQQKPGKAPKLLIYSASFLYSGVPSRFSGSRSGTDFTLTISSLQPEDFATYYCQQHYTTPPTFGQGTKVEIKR
B49: Trastuzumab HCDR3 variant ARYGYAPGFYYMDV (Fab, V domains shown)
VH: B48 VH with Y100G, G102A, Y103P, G105F, F108M, Y110V
VL: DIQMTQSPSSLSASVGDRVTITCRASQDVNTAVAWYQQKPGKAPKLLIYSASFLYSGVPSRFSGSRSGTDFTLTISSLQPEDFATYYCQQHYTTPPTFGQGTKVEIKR
B50: Trastuzumab HCDR3 variant TRYYDGAGPYYMDY (Fab, V domains shown)
VH: B48 VH with A97T, Y101D, Y103A, G105P, F108M
VL: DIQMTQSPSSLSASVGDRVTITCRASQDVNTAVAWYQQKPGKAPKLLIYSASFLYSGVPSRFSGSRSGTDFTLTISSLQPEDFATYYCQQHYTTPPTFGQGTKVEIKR

Target: human epidermal growth factor receptor 2 (HER2) extracellular domain (human, UniProt P04626 23-629)
Assay: SPR

Binder | Kd | log(KD (M))
B1 | 46.3 nM | -7.33 log(M)
B2 | 43.1 nM | -7.37 log(M)
B3 | 39.6 nM | -7.4 log(M)
B4 | 33.8 nM | -7.47 log(M)
B5 | 113 nM | -6.95 log(M)
B6 | 35.4 nM | -7.45 log(M)
B7 | 37.7 nM | -7.42 log(M)
B8 | 207 nM | -6.68 log(M)
B9 | 133 nM | -6.88 log(M)
B10 | 27.6 nM | -7.56 log(M)
B11 | 262 nM | -6.58 log(M)
B12 | 86.6 nM | -7.06 log(M)
B13 | 83.2 nM | -7.08 log(M)
B14 | 92.9 nM | -7.03 log(M)
B15 | 37.8 nM | -7.42 log(M)
B16 | 135 nM | -6.87 log(M)
B17 | 36.2 nM | -7.44 log(M)

Binder | Kd | log(KD (M))
B18 | 130 nM | -6.88 log(M)
B19 | 172 nM | -6.77 log(M)
B20 | 95.1 nM | -7.02 log(M)
B21 | 30.3 nM | -7.52 log(M)
B22 | 33.6 nM | -7.47 log(M)
B23 | 56.6 nM | -7.25 log(M)
B24 | 148 nM | -6.83 log(M)
B25 | 48.9 nM | -7.31 log(M)
B26 | 27.5 nM | -7.56 log(M)
B27 | 120 nM | -6.92 log(M)
B28 | 114 nM | -6.94 log(M)
B29 | 210 nM | -6.68 log(M)
B30 | 179 nM | -6.75 log(M)
B31 | 202 nM | -6.7 log(M)
B32 | 248 nM | -6.61 log(M)
B33 | 28 nM | -7.55 log(M)

Target: T1, HER2 (human epidermal growth factor receptor 2) (human, UniProt P04626 23-629)
T1 construct: also called Antigen: HER2
Assay: SPR

Binder | Kd | log(KD (M))
B34 | 13.2 nM | -7.88
B35 | 16.5 nM | -7.78
B36 | 6.76 nM | -8.17
B37 | 19.9 nM | -7.7
B38 | 25.1 nM | -7.6
B39 | 5.35 nM | -8.27
B40 | 14.3 nM | -7.84
B41 | 9.15 nM | -8.04
B42 | 21.8 nM | -7.66
B43 | 17.6 nM | -7.75
B44 | 9.79 nM | -8.01
B45 | 13.9 nM | -7.86
B46 | 26.9 nM | -7.57
B47 | 26.9 nM | -7.57
B48 | 15 nM | -7.82
B49 | 9.72 nM | -8.01
B50 | 23.7 nM and 23.6 nM | -7.63
